From publication doi:10.1101/2019.12.26.888982 (bioRxiv, 2019) come the findings set out here.

First the molecules themselves.
B1: Human TRPA1 (MBP-TRPA1) modified with BODIPY-iodoacetamide (BIA) (natural protein)
chain: KRSLRKMWRPGEKKEPQGVVYEDVPDDTEDFKESLKVVFEGSAYGLQNFNKQKKLKRCDDMDTFFLHYAAAEGQIELMEKITRDSSLEVLHEMDDYGNTPLHCAVEKNQIESVKFLLSRGANPNLRNFNMMAPLHIAVQGMNNEVMKVLLEHRTIDVNLEGENGNTAVIIACTTNNSEALQILLKKGAKPCKSNKWGCFPIHQAAFSGSKECMEIILRFGEEHGYSRQLHINFMNNGKATPLHLAVQNGDLEMIKMCLDNGAQIDPVEKGRCTAIHFAATQGATEIVKLMISSYSGSVDIVNTTDGCHETMLHRASLFDHHELADYLISVGADINKIDSEGRSPLILATASASWNIVNLLLSKGAQVDIKDNFGRNFLHLTVQQPYGLKNLRPEFMQMQQIKELVMDEDNDGCTPLHYACRQGGPGSVNNLLGFNVSIHSKSKDKKSPLHFAASYGRINTCQRLLQDISDTRLLNEGDLHGMTPLHLAAKNGHDKVVQLLLKKGALFLSDHNGWTALHHASMGGYTQTMKVILDTNLKCTDRLDEDGNTALHFAAREGHAKAVALLLSHNADIVLNKQQASFLHLALHNKRKEVVLTIIRSKRWDECLKIFSHNSPGNKCPITEMIEYLPECMKVLLDFCMLHSTEDKSCRDYYIEYNFKYLQCPLEFTKKTPTQDVIYEPLTALNAMVQNNRIELLNHPVCKEYLLMKWLAYGFRAHMMNLGSYCLGLIPMTILVVNIKPGMAFNSTGIINETSDHSEILDTTNSYLIKTCMILVFLSSIFGYCKEAGQIFQQKRNYFMDISNVLEWIIYTTGIIFVLPLFVEIPAHLQWQCGAIAVYFYWMNFLLYLQRFENCGIFIVMLEVILKTLLRSTVVFIFLLLAFGLSFYILLNLQDPFSSPLLSIIQTFSMMLGDINYRESFLEPYLRNELAHPVLSFAQLVSFTIFVPIVLMNLLIGLAVGDIAEVQKHASLKRIAMQVELHTSLEKKLPLWFLRKVDQKSTIVYPNKPRSGGMLFHIFCFLFCTGEIRQEIPNADKSLEMEILKQKYRLKDLTFLLEKQHELIKLIIQKMEIISETEDDDSHCSFQDRFKKEQMEQRNSRWNTVLRAVKAKTHHLEP
modifications: BODIPY-IA (BIA) covalent adduct at Cys621
B2: Human TRPA1 (N-terminal-tagged MBP-TRPA1), unmodified (apo or with the antagonist A-967079) (natural protein)
chain: MKRSLRKMWRPGEKKEPQGVVYEDVPDDTEDFKESLKVVFEGSAYGLQNFNKQKKLKRCDDMDTFFLHYAAAEGQIELMEKITRDSSLEVLHEMDDYGNTPLHCAVEKNQIESVKFLLSRGANPNLRNFNMMAPLHIAVQGMNNEVMKVLLEHRTIDVNLEGENGNTAVIIACTTNNSEALQILLKKGAKPCKSNKWGCFPIHQAAFSGSKECMEIILRFGEEHGYSRQLHINFMNNGKATPLHLAVQNGDLEMIKMCLDNGAQIDPVEKGRCTAIHFAATQGATEIVKLMISSYSGSVDIVNTTDGCHETMLHRASLFDHHELADYLISVGADINKIDSEGRSPLILATASASWNIVNLLLSKGAQVDIKDNFGRNFLHLTVQQPYGLKNLRPEFMQMQQIKELVMDEDNDGCTPLHYACRQGGPGSVNNLLGFNVSIHSKSKDKKSPLHFAASYGRINTCQRLLQDISDTRLLNEGDLHGMTPLHLAAKNGHDKVVQLLLKKGALFLSDHNGWTALHHASMGGYTQTMKVILDTNLKCTDRLDEDGNTALHFAAREGHAKAVALLLSHNADIVLNKQQASFLHLALHNKRKEVVLTIIRSKRWDECLKIFSHNSPGNKCPITEMIEYLPECMKVLLDFCMLHSTEDKSCRDYYIEYNFKYLQCPLEFTKKTPTQDVIYEPLTALNAMVQNNRIELLNHPVCKEYLLMKWLAYGFRAHMMNLGSYCLGLIPMTILVVNIKPGMAFNSTGIINETSDHSEILDTTNSYLIKTCMILVFLSSIFGYCKEAGQIFQQKRNYFMDISNVLEWIIYTTGIIFVLPLFVEIPAHLQWQCGAIAVYFYWMNFLLYLQRFENCGIFIVMLEVILKTLLRSTVVFIFLLLAFGLSFYILLNLQDPFSSPLLSIIQTFSMMLGDINYRESFLEPYLRNELAHPVLSFAQLVSFTIFVPIVLMNLLIGLAVGDIAEVQKHASLKRIAMQVELHTSLEKKLPLWFLRKVDQKSTIVYPNKPRSGGMLFHIFCFLFCTGEIRQEIPNADKSLEMEILKQKYRLKDLTFLLEKQHELIKLIIQKMEIISETEDDDSHCSFQDRFKKEQMEQRNSRWNTVLRAVKAKTHHLEP
B3: Human TRPA1 (MBP-TRPA1) modified with iodoacetamide (IA), activated state (natural protein)
chain: B2 chain
modifications: iodoacetamide covalent adduct at Cys621; weaker density at Cys665, which may reflect partial modification

This data set deals with the molecule itself. Put plainly: cryo-EM structure.
For the protein B1, the binding result is recorded as “binds”.

B2: the binding result is on record as “binds”.

Turning to B3, the binding result is reported as “binds”.
